One series deals with S. aureus SHY97-4320. In words: WGA-gold labelling of cell wall and cell division, electron microscopy. The class given is cell-based, Staphylococcus aureus. The procedure: To investigate the mechanism of action of LF in combination with penicillin G on cell division, transmission electron microscopy was also performed on thin section of a β-lactamase producing S. aureus SHY97-4320. Bacterial cells were grown in MHB containing 8 μg/ml of penicillin G, 1 mg/ml LF alone or in combination for 4-h at 37° C. with agitation at 150 rpm. Bacteria were harvested and incubated or not for 2-h in 0.02 M Tris (pH 7.4) containing 0.15 M NaCl, 0.5 mg/ml and 50 μl of wheat germ agglutinin (WGA) gold (Sigma Chemicals, St-Louis, Mo.) for 2 h. Bacteria cell morphology was evaluated by transmission electron microscopy as previously described. Effects of treatments were evaluated and compared by “t” test. […] The WGA has an affinity for N-acetyl-β-D-glucosamyl residues and N-acetyl-β-D-glucosamine oligomer. After treatment with LF, S. aureus cells were less covered (P<0.005) with WGA-gold (FIG. 12 and Table 3).

For series [1], the system named is β-lactamase (BlaZ) gene expression in S. aureus strain SHY97-4320. Kind of series: BlaZ gene expression, real-time quantitative RT-PCR, and total RNA. The class given is cell-based, Staphylococcus aureus. The procedure: Fresh MHB containing or not 8 μg/ml of penicillin G and/or 1 mg/ml of bovine LF (2×2 factorial design) was adjusted to an optical density at 540 nm of 0.04 with an overnight culture of S. aureus and then incubated at 37° C. with agitation (150 rpm). After 4 and 22-h of incubation, aliquots were removed to determine bacterial growth by viable count (colony forming unit per ml, cfu/ml), measuring the culture turbidity (OD540nm) with a spectrophotometer Philips PU and to measure β-lactamase activity in bacterial cells. Following culture under the same condition, bacterial cells were collected for RNA extraction.
Total bacterial RNA was prepared using the RNeasy minikit (Qiagen, Mississauga, ON, Canada). Washed bacteria were first treated with 50 μg/ml of lysostaphin (GramCracker, Ambion, Austin, Tex.) for 10 min at 37° C. and RNA was purified according to the manufacturer's protocol. Contaminating DNA was removed from total RNA by using 1 U of Rnase-free Dnase I (Gibco Life Technologies, Grand Island, N.Y.) in a 10 μl reaction mixture containing approximately 50 ng of total RNA per μl and 20mM Tris-HCl (pH 8.4), 2 mM MgCl2 and 50 mM KCl. The reaction mixture was incubated for 15 min at room temperature, and the Dnase I was inactivated by adding 1 μl of 25 mM EDTA to the mixture and incubating for 10 min at 65° C. before assessing quantity and purity. Amount of cellular RNA was then determined by measuring the OD260 nm and OD280 nm.
Real-Time fluorescence-based 5′ nuclease PCR which is a widely accepted method for measuring gene expression levels was used to quantify β-lactamase BlaZ RNA by RT-PCR on ABI Prism™ 7700 (TaqMan® ) sequence detector (PE Applied Biosystem, Foster City, Calif.). The forward primer, reverse.primer, and TaqMan probe for Real-Time RT-PCR amplification were designed with the PrimerExpress software (PE Applied Biosystem) to specifically amplify the. S. aureus BLAZ gene. Briefly, RNA (50 ng) was added to a 50 μl reaction mixture containing 25 μl of 2×RT-PCR One-Step Universal Master Mix, 1.25 μl of 40×MultiScribe and Rnase Inhibitor Mix, 4.5 μl of the forward primer (10 μM, 5′-[…]-3′, SEQ ID NO:3), 4.5 μl of the reverse primer (10 μM, 5′-[…]-3′, SEQ ID NO:4), and 1.25 μl of TaqMan probe (10 μM, 6FAM-[…]-TAMRA, SEQ ID NO:5). Reverse transcription with the recombinant Moloney Murine Leukemia Virus (M-MuLV) Reverse Transcriptase (0.25 U/μl) was conducted at 48° C. for 30 min. After initial activation of AmpliTaq Gold DNA polymerase (1.25 U/μl) at 95° C. for 10 min, 40 PCR cycles of 95° C. for 15 s and 60° C. for 1 min were performed. The cycle threshold value (CT), indicative of the quantity of target gene at which the fluorescence exceeds a pre-set threshold, was determined and compared to the CT of a standard curve containing known amounts of mRNA (1.1×10^2 to 1.1×10^9) from the BLAZ gene of S. aureus obtained by in vitro transcription. Statistical analysis were done on the LOG 10 of number of copies.

For series [2], the system named is β-lactamase activity of S. aureus PC-1. In words: β-lactamase activity, nitrocefin assay, bovine LF/LFC. The note with it: LF 1 mg/ml (P<0.05); LFC 32 or 64 μg/ml (P<0.001). The class given is cell-based. The method, then:
(§1) The effects of sub-MICs of LF (1 mg/ml), LFC (32 and 64 μg/ml) alone or in combination with ampicillin (4μg/ml) or penicillin G (8 μg/ml) were evaluated on the β-lactamase activity of S. aureus strains SHY97-4320 and PC-1. The chromogenic cephalosporin nitrocefin (Becton Dickinson, Microbiology, Cockeysville, Md.) was used in a quantitative spectrophotometric assay. Bacterial cells were first exposed during 4 and 22-h to drugs in broth. The number of bacteria (cfu/ml) were determined and cells aliquots were centrifuged at each point in time. The pellets were suspended in 10 mM HEPES buffer (pH 7.4) to an OD415 nm of 1 for PC-1 and 2 for SHY97-4320. Nitrocefin (100 μM) was added to 100 μl of cells in a final volume of 1 ml. Hydrolysis was measured at 486 nm on spectrophotometer. β-lactamase activity was expressed as ΔO.D.486 nm/min and corrected for bacterial OD.

The subject of series [3] is β-lactamase activity of S. aureus SHY97-4320. The description is as above. The class given is cell-based. The procedure:
as §1

β-lactamase activity of S. aureus SHY97-4320, sequence (P00807 25-281): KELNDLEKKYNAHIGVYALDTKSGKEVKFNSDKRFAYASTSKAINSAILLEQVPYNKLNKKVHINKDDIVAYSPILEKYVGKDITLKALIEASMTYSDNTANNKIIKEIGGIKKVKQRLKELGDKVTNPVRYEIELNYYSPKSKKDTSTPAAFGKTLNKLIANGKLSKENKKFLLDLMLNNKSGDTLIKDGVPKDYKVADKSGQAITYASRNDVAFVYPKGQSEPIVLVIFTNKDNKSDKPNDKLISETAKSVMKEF
β-lactamase activity of S. aureus PC-1, sequence (P00807 25-281): as above

B1: LF: bovine lactoferrin, 80-kDa iron-binding glycoprotein found in milk (protein, UniProt P24627 20-708, looked up)
Lactotransferrin: APRKNVRWCTISQPEWFKCRRWQWRMKKLGAPSITCVRRAFALECIRAIAEKKADAVTLDGGMVFEAGRDPYKLRPVAAEIYGTKESPQTHYYAVAVVKKGSNFQLDQLQGRKSCHTGLGRSAGWIIPMGILRPYLSWTESLEPLQGAVAKFFSASCVPCIDRQAYPNLCQLCKGEGENQCACSSREPYFGYSGAFKCLQDGAGDVAFVKETTVFENLPEKADRDQYELLCLNNSRAPVDAFKECHLAQVPSHAVVARSVDGKEDLIWKLLSKAQEKFGKNKSRSFQLFGSPPGQRDLLFKDSALGFLRIPSKVDSALYLGSRYLTTLKNLRETAEEVKARYTRVVWCAVGPEEQKKCQQWSQQSGQNVTCATASTTDDCIVLVLKGEADALNLDGGYIYTAGKCGLVPVLAENRKSSKHSSLDCVLRPTEGYLAVAVVKKANEGLTWNSLKDKKSCHTAVDRTAGWNIPMGLIVNQTGSCAFDEFFSQSCAPGADPKSRLCALCAGDDQGLDKCVPNSKEKYYGYTGAFRCLAEDVGDVAFVKNDTVWENTNGESTADWAKNLNREDFRLLCLDGTRKPVTEAQSCHLAVAPNHAVVSRSDRAAHVKQVLLHQQALFGKNGKNCPDKFCLFKSETKNLLFNDNTECLAKLGGRPTYEEYLGTEYVTAIANLKKCSTSPLLEACAFLTR
B1: the cell division result in the series with S. aureus SHY97-4320 (LF 1 mg/ml alone or in combination with penicillin) was “Groups of multiple undivided cell”. The “coverage of cells with WGA-gold” value with S. aureus SHY97-4320 (after treatment with LF, P<0.005) was “less covered”. The “BlaZ total: total number of copies of BlaZ gene mRNA/ml of culture” value in series [1] (LF 1 mg/ml and/or penicillin G) is listed as 5.6 × 10^5 copies/ml of culture. Moreover, the “BlaZ: number of copies of BlaZ gene mRNA/50 ng of mRNA” value in series [1] (LF 1 mg/ml and/or penicillin G) was 1.4 × 10^4 copies/50 ng of mRNA. For the same molecule, the “reduction of the mRNA level in bacteria” value in series [1] (LF, P<0.001) amounted to 35%. Moreover, the RNA in series [1] (adjusted for an OD540nm of 1.0, LF 1 mg/ml and/or penicillin G) was 1.88 ± 0.68 :g/ml. In addition, the “penicillin G-induced increase of BlaZ mRNA” value in series [1] (simultaneous addition of 1 mg/ml of LF) is “completely prevented”. In addition, the β-lactamase activity entry is reported as “moderately reduces β-lactamase activity” in series [2]; “no β-lactamase activity” in series [3] (LF 1 mg/ml alone); “a significant reduction of β-lactamase activity” in series [3] (LF 1 mg/ml in combination with 8 μg/ml penicillin G, P<0.001).

Values taken from US20030134779A1, “Method and composition for treatment and/or prevention of antibiotic-resistant microorganism infections” (priority 2002, published 2003).
